Data: US20040053296A1 (TAKARA BIO, published 2004)

Assays:
[1] = molecular target: T1, mucin box-deleted mutant of rat neutral ceramidase (delta-mucin CDase), C-terminal myc tag (rat, UniProt Q91XT9 1-761); assay: lectin blot with HRP-labeled PNA lectin after immunoprecipitation from HEK293 lysate
T1 construct: Expressed in HEK293 cells, immunoprecipitated and blotted; also called Δmucin; Δmucin CDase; not shown: C-terminal Myc-His tag from vector pcDNA3.1/Myc-his(+)
Method: CDase was immunoprecipitated from the cell lysate of HEK293 cells prepared in Example 2, in which Δmucin or wild-type CDase was expressed, by using an anti-CDase antibody. A 100-fold dilution of anti-CDase was coupled with 10 μl of protein A-agarose (trade name, manufactured by SANTA CRUZ) in 100 μl of a reaction buffer (10 mM Tris-HCl, pH 7.5, containing 150 mM NaCl, 1% (v/v) Tritonm X-100 and 0.1% (w/v) BSA) at 4° C. for 2 hours. The product obtained was washed five times with the above reaction buffer. Thereafter, this product was mixed with a CDase sample, obtained by previously heating at 100° C. for 5 minutes in SDS sample buffer [20 mM Tris-HCl, pH 7.5, containing 1% (w/v) SDS and 1% (v/v) 2-mercaptoethanol], and incubated at 4° C. for 18 hours with gentle stirring. Subsequently, the immunoprecipitate was sedimented by centrifugation, washed five times with the above reaction buffer, suspended in 20 μl of the SDS sample buffer, and heated at 100° C. for 5 minutes. The resulting product was subjected to SDS-PAGE and Western blotting as described in Example 2. The PVDF membrane was stained with an anti-Myc antibody or an HRP-labeled PNA lectin. PNA (peanut agglutinin) lectin is a lectin capable of specifically recognizing and binding to the Galβ1,3GalNAc sequence of O-glycan.

[2] = molecular target: T2, 94-kDa mouse neutral ceramidase from the soluble fraction of the liver, lacking the mucin box (mouse, UniProt Q9JHE3 75-756, limits assumed); assay: lectin blot with HRP-labeled PNA lectin after immunoprecipitation from mouse liver soluble fraction
T2 construct: The whole entry is named here, and the true chain is shorter at the N-terminus; also called 94-kDa CDase; enzyme in the soluble fraction of the liver
T2 sequence (Q9JHE3 75-756 limits assumed): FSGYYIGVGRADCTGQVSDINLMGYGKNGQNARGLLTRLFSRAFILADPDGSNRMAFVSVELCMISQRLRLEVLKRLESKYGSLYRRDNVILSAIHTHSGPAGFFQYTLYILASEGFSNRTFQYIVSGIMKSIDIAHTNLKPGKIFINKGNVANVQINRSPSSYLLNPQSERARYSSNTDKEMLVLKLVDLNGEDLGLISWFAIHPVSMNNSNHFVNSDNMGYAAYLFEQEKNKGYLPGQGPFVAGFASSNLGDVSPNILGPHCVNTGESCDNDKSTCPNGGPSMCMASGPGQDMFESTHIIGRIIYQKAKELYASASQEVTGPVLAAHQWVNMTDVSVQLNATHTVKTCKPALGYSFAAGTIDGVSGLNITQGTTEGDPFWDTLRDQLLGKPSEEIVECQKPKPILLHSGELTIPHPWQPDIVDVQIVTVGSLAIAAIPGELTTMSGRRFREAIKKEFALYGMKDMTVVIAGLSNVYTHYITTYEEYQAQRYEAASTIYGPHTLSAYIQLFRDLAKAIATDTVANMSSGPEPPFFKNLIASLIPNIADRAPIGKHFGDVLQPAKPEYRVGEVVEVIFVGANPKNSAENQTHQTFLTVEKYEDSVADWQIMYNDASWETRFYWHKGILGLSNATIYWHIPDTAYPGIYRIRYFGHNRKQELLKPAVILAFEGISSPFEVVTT

T1 sequence (Q91XT9 other isoform, or with tags, fused parts or gaps mutant): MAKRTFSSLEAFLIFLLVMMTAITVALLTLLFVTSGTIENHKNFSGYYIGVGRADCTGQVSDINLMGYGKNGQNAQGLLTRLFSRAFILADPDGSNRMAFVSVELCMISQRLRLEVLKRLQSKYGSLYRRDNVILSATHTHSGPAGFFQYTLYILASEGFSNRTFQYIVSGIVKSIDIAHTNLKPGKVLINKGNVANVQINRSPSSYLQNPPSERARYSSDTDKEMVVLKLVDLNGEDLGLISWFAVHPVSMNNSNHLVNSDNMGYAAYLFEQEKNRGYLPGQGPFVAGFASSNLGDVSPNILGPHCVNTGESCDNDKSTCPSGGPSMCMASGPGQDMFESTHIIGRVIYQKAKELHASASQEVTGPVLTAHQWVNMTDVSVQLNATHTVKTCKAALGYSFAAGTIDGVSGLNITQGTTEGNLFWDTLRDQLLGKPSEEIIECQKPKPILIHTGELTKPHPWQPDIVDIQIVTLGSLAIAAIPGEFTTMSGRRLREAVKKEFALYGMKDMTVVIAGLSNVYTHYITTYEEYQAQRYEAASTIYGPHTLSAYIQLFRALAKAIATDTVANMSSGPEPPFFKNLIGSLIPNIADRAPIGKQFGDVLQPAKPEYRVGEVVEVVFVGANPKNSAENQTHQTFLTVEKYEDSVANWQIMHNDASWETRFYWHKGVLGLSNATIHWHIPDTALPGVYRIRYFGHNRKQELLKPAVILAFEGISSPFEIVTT

- binding result [1]: no binding
- binding result [2]: no binding
B1: HRP-labeled PNA lectin (peanut agglutinin) (other, UniProt P02872 24-259, looked up)
chain: AETVSFNFNSFSEGNPAINFQGDVTVLSNGNIQLTNLNKVNSVGRVLYAMPVRIWSSATGNVASFLTSFSFEMKDIKDYDPADGIIFFIAPEDTQIPAGSIGGGTLGVSDTKGAGHFVGVEFDTYSNSEYNDPPTDHVGIDVNSVDSVKTVPWNSVSGAVVKVTVIYDSSTKTLSVAVTNDNGDITTIAQVVDLKAKLPERVKFGFSASGSLGGRQIHLIRSWSFTSTLITTTRRS
modifications: HRP-labeled
notes: Lectin used as a blotting reagent; also called peanut lectin
